Several values for one entry are separate records, joined by “and”; a condition that tells them apart may be missing. Equal values may be shown once.
B1: Tryptophan synthase alpha chain, P00929 (parent)
chain: MERYENLFAQLNDRREGAFVPFVTLGDPGIEQSLKIIDTLIDAGADALELGVPFSDPLADGPTIQNANLRAFAAGVTPAQCFEMLALIREKHPTIPIGLLMYANLVFNNGIDAFYARCEQVGVDSVLVADVPVEESAPFRQAALRHNIAPIFICPPNADDDLLRQVASYGRGYTYLLSRSGVTGAENRGALPLHHLIEKLKEYHAAPALQGFGISSPEQVSAAVRAGAAGAISGSAIVKIIEKNLASPKQMLAELRSFVSAMKAASRA

Variants of: B1
Details: Salmonella typhimurium (strain LT2 / SGSC1412 / ATCC 700720); pH 7.8; 25 °C; Urea; CD; Potassium phosphate 10 mM; transition: 3; structure 2WSY; whole UniProt chain shown

Row | Variant | denaturant m value | denaturant midpoint (higher = more stable) | unfolding free energy | ddG of mutation (higher = less stable)
1 | A18V I232V | 2.1 kcal/mol/M and 1.8 kcal/mol/M | 2.12 M and 3.73 M | 4.4 kcal/mol and 6.8 kcal/mol | –
2 | L209V | 1.7 kcal/mol/M and 1.1 kcal/mol/M | 2.3 M and 3.44 M | 4 kcal/mol and 3.8 kcal/mol | 3.4 kcal/mol and 2 kcal/mol
3 | Y175Q L209V | 1.6 kcal/mol/M and 2.2 kcal/mol/M | 2.23 M and 4.32 M | 3.6 kcal/mol and 9.7 kcal/mol | –
4 | A18G I232V | 0.9 kcal/mol/M and 1.6 kcal/mol/M | 2.08 M and 3.46 M | 1.9 kcal/mol and 5.6 kcal/mol | –
5 | Y175Q | 2.9 kcal/mol/M and 2.7 kcal/mol/M | 2.05 M and 2.91 M | 6 kcal/mol and 7.9 kcal/mol | –
6 | A18V | 1.5 kcal/mol/M | 3.77 M and 2.24 M | 5.8 kcal/mol and 3.3 kcal/mol | –
7 | A18G | 1.7 kcal/mol/M | 1.88 M | 3.3 kcal/mol | 4.1 kcal/mol
8 | I232V | 1.5 kcal/mol/M and 1.3 kcal/mol/M | 2.31 M and 3.28 M | 3.5 kcal/mol and 4.3 kcal/mol | 3.9 kcal/mol and 1.5 kcal/mol

From FireProtDB (doi:10.1021/bi00072a011)
